Common to all, as to assay: filter
The target in data set [1] is PDGF-BB (Homo sapiens) (UniProt P01127). The note with it: 2'-OMe A,C,U; 2'-OH G; approximately 950 nM or higher; naive pool also binds PDGF-BB.
For data set [2], the target named is T1, IFN-gamma (Homo sapiens) (UniProt P01579).
T1 sequence: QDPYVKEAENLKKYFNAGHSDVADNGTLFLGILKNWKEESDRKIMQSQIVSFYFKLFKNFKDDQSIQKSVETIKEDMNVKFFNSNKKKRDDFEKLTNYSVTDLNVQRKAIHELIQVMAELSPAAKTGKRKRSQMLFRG
The note with it: dRmY: deoxy A,G, 2'-OMe C,U.

In data set [3] the target is IL-23 (Homo sapiens) (UniProt Q9NPF7+P29460). The note with it: approximately 500 nM or higher, DPBS, 0.1 mg/ml tRNA.
Data set [4] deals with Complement C5 full length (Homo sapiens) (UniProt P01031+P01031). Particulars: dRmY: deoxy A,G, 2'-OMe C,U, plateau about 10%.
Data set [5] relates to IgE (Homo sapiens). The note with it: 2'-OMe C,U; 2'-OH A,G; approximately 500 nM or higher.
[6] abbreviates: high salt selection (250 mM NaCl).

Some results are limits rather than exact numbers.

Chain of IL-23 (Homo sapiens) (Q9NPF7 20-189, chain 1 of 2): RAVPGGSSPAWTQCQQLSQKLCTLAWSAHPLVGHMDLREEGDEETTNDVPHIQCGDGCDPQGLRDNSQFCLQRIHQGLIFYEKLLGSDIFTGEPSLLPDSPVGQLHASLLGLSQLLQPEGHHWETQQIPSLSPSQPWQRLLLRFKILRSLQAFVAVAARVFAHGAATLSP
Chain of IL-23 (Homo sapiens) (P29460 23-328, chain 2 of 2): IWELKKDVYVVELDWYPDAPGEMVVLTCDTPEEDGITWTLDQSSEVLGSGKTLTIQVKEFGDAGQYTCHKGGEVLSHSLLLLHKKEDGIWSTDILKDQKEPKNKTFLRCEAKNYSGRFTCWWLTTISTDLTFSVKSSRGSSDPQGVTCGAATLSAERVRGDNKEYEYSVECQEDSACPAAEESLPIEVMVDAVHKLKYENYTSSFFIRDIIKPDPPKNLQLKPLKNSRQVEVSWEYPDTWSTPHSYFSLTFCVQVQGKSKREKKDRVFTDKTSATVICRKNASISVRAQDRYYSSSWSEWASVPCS
Chain of Complement C5 full length (Homo sapiens) (P01031 19-673, chain 1 of 2): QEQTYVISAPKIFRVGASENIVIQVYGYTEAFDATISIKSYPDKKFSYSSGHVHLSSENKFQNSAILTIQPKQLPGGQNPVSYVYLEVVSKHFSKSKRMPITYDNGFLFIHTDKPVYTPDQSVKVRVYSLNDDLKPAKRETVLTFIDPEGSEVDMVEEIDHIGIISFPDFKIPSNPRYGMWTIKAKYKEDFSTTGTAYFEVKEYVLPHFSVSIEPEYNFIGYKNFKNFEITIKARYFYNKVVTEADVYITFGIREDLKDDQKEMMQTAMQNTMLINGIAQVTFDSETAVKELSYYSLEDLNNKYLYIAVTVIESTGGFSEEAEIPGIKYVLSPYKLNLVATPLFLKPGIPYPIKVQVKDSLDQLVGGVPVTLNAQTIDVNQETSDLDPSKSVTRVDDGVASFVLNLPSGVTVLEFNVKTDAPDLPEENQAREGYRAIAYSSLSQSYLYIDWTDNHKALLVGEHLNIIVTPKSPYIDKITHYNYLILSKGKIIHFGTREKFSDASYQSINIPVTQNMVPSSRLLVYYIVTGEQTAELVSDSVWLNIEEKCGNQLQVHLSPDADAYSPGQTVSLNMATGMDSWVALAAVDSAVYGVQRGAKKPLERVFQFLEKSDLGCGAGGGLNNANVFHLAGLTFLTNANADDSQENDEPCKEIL
Chain of Complement C5 full length (Homo sapiens) (P01031 678-1676, chain 2 of 2): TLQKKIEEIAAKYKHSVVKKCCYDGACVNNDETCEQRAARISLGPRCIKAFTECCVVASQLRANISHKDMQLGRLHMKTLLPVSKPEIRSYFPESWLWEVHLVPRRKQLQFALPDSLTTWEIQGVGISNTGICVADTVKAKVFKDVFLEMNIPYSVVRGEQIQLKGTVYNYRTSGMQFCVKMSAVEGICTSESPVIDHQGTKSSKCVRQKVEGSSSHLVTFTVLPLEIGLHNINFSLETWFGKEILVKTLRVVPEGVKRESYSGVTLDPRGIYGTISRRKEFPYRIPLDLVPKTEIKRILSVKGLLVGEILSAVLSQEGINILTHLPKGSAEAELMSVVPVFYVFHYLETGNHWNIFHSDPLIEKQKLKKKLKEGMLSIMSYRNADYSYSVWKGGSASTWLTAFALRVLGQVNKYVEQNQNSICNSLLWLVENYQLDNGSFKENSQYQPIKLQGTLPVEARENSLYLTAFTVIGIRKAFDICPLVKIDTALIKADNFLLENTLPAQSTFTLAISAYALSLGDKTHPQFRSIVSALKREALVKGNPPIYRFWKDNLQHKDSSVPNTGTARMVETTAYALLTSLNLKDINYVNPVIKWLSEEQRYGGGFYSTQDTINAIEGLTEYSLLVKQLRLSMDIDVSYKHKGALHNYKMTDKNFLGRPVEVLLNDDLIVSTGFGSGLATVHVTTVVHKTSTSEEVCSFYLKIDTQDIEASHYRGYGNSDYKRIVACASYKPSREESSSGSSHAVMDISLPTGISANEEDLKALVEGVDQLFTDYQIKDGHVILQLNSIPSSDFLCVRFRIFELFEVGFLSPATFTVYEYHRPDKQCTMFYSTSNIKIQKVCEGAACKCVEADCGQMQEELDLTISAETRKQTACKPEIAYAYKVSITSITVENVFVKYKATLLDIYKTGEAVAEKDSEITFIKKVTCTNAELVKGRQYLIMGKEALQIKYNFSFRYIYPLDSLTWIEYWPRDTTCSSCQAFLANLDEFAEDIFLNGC
Chain of PDGF-BB (Homo sapiens) (P01127 82-190): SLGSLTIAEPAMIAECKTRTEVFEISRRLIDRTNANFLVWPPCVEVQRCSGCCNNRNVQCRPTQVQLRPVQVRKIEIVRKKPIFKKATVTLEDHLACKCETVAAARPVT

In the case of “GGGNGNGGNGNGNNCGUUCUNCNNNNNNNNNNNNNNNNNNNNNNNNNNNNNNCGCUGUCGNUCGNUCGNUCGNUG [PDGF-BB rGmH round 10 pool]”, the dissociation constant Kd in data set [1] is more than 950 nM.
The sequence “GGGAGAGGAGAGAACGUUCUACNNNNNNNNNNNNNNNNNNNNNNNNNNNNNNGGUCGAUCGAUCGAUCAUCGAUG [IFN-gamma round 12 dRmY pool, normal stringency]” registered a Kd in data set [2] (1x DPBS, tRNA, ssDNA, BSA) of 445 nM.
In turn, “GGGNGNGGNGNGNNCGUUCUNCNNNNNNNNNNNNNNNNNNNNNNNNNNNNNNCGCUGUCGNUCGNUCGNUCGNUG [IL-23 rGmH round 10 pool]” returned a Kd in data set [3] (2'-OMe A,C,U, 2'-OH G) of more than 500 nM.
On to “GGGAGAGGAGAGAACGUUCUACNNNNNNNNNNNNNNNNNNNNNNNNNNNNNNGGUCGAUCGAUCGAUCAUCGAUG [IFN-gamma round 12 dRmY pool, high salt]”, for which the Kd in data set [2] (setting [6]) was determined as 590 nM.
Sequence “GGGAGAGGAGAGAACGUUCUACNNNNNNNNNNNNNNNNNNNNNNNNNNNNNNGGUCGAUCGAUCGAUCAUCGAUG [C5 partially trypsinized selection round 10 dRmY pool]” came in with a Kd in data set [4] (selection on partially trypsinized C5) of 150 nM.
Consider “GGGAGAGGAGAGAACGUUCUACNNNNNNNNNNNNNNNNNNNNNNNNNNNNNNGGUCGAUCGAUCGAUCAUCGAUG [C5 full-length selection round 10 dRmY pool]”, for which the Kd in data set [4] (1x DPBS, tRNA and salmon sperm DNA competitor) was determined as 115 nM.
In data set [5], “GGGAGAGGAGAGAACGUUCUACNNNNNNNNNNNNNNNNNNNNNNNNNNNNNNCGCUGUCGAUCGAUCGAUCGAUG [IgE rRmY round 6 pool]” came in with a Kd of more than 500 nM.
As to “GGGAGAGGAGAGAACGUUCUACNNNNNNNNNNNNNNNNNNNNNNNNNNNNNNCGCUGUCGAUCGAUCGAUCGAUG [IL-23 rRmY round 9 pool]”, the Kd in data set [3] (2'-OMe C,U, 2'-OH A,G) was more than 500 nM.
“GGGAGAGGAGAGAACGUUCUACNNNNNNNNNNNNNNNNNNNNNNNNNNNNNNGGUCGAUCGAUCGAUCAUCGAUG [IFN-gamma round 10 dRmY pool, normal stringency]” returned a Kd in data set [2] (1x DPBS, tRNA, ssDNA, BSA) of 605 nM.
Turning to “GGGAGAGGAGAGAACGUUCUACNNNNNNNNNNNNNNNNNNNNNNNNNNNNNNGGUCGAUCGAUCGAUCAUCGAUG [IFN-gamma round 10 dRmY pool, high salt]”, the Kd in data set [2] (setting [6]) came out at 675 nM.

For orientation: Kd means the free concentration of one partner at which half of the binding sites on the other are occupied at equilibrium, for simple one-to-one binding.

Values taken from patent US20050037394.
